Results published in PMC5708649 (PLoS ONE, 2017).

Molecular target: inactive E433A variant of full-length PgDPP III (Porphyromonas gingivalis W83, UniProt Q7MX92 1-886, E433A)
Assay: ITC
Details: both partners purified

B1: tynorphin (peptide)
peptide: VVYPW
notes: also called VVYPW; pentapeptide tynorphin
binding result: binds

IVYPW
binding result: binds
